From paper PMC10288911 (2023)
Numbering of substitutions follows the chain as printed. One block for each binder: values may come before it.

Legend:
6×His-tagged FcRn/β2m = 6×His-tagged FcRn/β2m (UniProt P55899 24-365; P61769 21-119); assay: BLI; pH 7.4; FcRn immobilised
[1] = biological target: FcRn/β2m heterodimers (SPR analyte) (UniProt P55899 24-365; P61769 21-119); assay: SPR; pH 7.4; IgG captured by gp120
[2] = biological target: 6×His-tag cleaved FcRn/β2m (UniProt P55899 24-365; P61769 21-119); assay: BLI; pH 7.4; IgG immobilised

Kd (6×His-tagged FcRn/β2m): 930 nM
Kd [1]: 10000 nM
Kd [2]: 180 nM
B1: VRC07-523LS.v1 (antibody)
chain 1: QVRLSQSGGQMKKPGDSMRISCRASGYEFINCPINWIRLAPGKRPEWMGWMKPRFGAVSYARQLQGRVTMTRQLSQDPDDPDWGTAFLELRSLTSDDTAVYFCTRGKYCTARDYYNWDFEHWGQGTPVTVSS
chain 2: LTQSPGTLSLSPGETAIISCRTSQYGSLAWYQQRPGQAPRLVIYSGSTRAAGIPDRFSGSRWGPDYNLTISNLESGDFGVYYCQQYEFFGQGTKVQVD

Kd (6×His-tagged FcRn/β2m): 6000 nM
Kd [1]: 6300 nM
Kd [2]: 170 nM
B2: VRC07-523LS.v34 (antibody)
chain 1: B1 chain 1 with R23S, K107S
chain 2: B1 chain 2 with R21E

Kd (6×His-tagged FcRn/β2m): 1600 nM
Kd [1]: 3800 nM
Kd [2]: 170 nM
B3: VRC07-523LS.v23 (antibody)
chain 1: B1 chain 1
chain 2: B1 chain 2 with R21S

Kd (6×His-tagged FcRn/β2m): 5400 nM
Kd [1]: 9600 nM
Kd [2]: 180 nM
B4: VRC07-523LS.v37 (antibody)
chain 1: B1 chain 1 with R23Q, K107Q
chain 2: B1 chain 2 with R21E
